Starred links: 1 amine or outer side, 2 acyl side, 3 side chain; linkers in the order of their positions; H or OH if unused. Non-standard residues stand in square brackets, D forms with d. Groups on a side chain read outwards from the residue. Primed or numbered codes have the meaning given here. No end group written: not given here. *: point of attachment. γGlu = O=C(O)[C@H](CCC(=O)[*:2])N[*:1]; Stearoyl = CCCCCCCCCCCCCCCCCC(=O)*; αMeF = C[C@](N)(Cc1ccccc1)C(=O)O; αMeK = C[C@](N)(CCCCN)C(=O)O; αMeS = C[C@](N)(CO)C(=O)O; PEG2′ = not defined here; Aib = CC(C)(N)C(=O)O; Ahx = NCCCCCC(=O)O
Columns and labels:
Experiment in all cases: cell-based or functional assay
[1] = biological target: T1, glucose-dependent insulinotropic peptide (gastric inhibitory polypeptide) receptor (GIPR) (human, UniProt P48546 22-466)
T1 sequence (looked up): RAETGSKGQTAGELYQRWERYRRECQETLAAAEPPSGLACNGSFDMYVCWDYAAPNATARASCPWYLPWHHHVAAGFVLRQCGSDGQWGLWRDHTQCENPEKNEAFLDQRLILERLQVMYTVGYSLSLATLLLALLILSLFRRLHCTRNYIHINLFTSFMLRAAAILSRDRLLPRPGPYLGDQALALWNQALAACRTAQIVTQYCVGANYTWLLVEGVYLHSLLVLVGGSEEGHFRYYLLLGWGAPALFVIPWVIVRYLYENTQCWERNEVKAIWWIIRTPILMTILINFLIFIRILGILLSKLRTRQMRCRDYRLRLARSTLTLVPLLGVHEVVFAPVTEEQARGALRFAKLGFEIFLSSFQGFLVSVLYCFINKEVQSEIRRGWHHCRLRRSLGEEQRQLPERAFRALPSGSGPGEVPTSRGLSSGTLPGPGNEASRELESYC

[2] = biological target: GLP-1 receptor (GLP-1R) (human, UniProt P43220 24-463)
[3] = biological target: glucagon receptor (GCGR) (human, UniProt P47871 26-477)
glucagon receptor (GCGR), sequence (P47871 26-477): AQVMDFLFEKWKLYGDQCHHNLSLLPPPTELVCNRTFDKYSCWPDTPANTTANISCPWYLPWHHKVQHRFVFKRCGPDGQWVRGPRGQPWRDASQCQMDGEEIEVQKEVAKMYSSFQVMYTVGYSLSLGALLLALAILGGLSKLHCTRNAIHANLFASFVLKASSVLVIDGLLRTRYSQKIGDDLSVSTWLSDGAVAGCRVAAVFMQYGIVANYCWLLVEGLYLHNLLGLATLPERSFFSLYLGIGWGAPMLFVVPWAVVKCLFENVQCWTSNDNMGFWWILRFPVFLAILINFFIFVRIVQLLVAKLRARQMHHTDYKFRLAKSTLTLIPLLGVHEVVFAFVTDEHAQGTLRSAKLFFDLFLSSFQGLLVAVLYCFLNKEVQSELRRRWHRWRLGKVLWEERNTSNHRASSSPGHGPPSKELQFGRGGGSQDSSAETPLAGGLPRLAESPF

B1: SEQ ID NO 182 (peptide)
peptide: H[Aib]EGS[αMeF]TSDV[αMeS]S[αMeF]LEGEAA[αMeK]E[αMeF]IA[αMeF]VVK([γGlu-Stearoyl])GG-NH2
modifications: N-terminus assumed
SMILES: CCCCCCCCCCCCCCCCCC(=O)N[C@@H](CCC(=O)NCCCC[C@H](NC(=O)[C@@H](NC(=O)[C@@H](NC(=O)[C@](C)(Cc1ccccc1)NC(=O)[C@H](C)NC(=O)[C@@H](NC(=O)[C@](C)(Cc1ccccc1)NC(=O)[C@H](CCC(=O)O)NC(=O)[C@](C)(CCCCN)NC(=O)[C@H](C)NC(=O)[C@H](C)NC(=O)[C@H](CCC(=O)O)NC(=O)CNC(=O)[C@H](CCC(=O)O)NC(=O)[C@H](CC(C)C)NC(=O)[C@](C)(Cc1ccccc1)NC(=O)[C@H](CO)NC(=O)[C@](C)(CO)NC(=O)[C@@H](NC(=O)[C@H](CC(=O)O)NC(=O)[C@H](CO)NC(=O)[C@@H](NC(=O)[C@](C)(Cc1ccccc1)NC(=O)[C@H](CO)NC(=O)CNC(=O)[C@H](CCC(=O)O)NC(=O)C(C)(C)NC(=O)[C@@H](N)Cc1c[nH]cn1)[C@@H](C)O)C(C)C)[C@@H](C)CC)C(C)C)C(C)C)C(=O)NCC(=O)NCC(N)=O)C(=O)O
Primary assay EC50 (cAMP), GIP-R, first run [1]: 28 nM
Primary assay EC50 (cAMP), GIP-R, second run [1]: 28 nM
Primary assay EC50 (cAMP), GLP-1R n1 [2]: 0.13 nM
Primary assay EC50 (cAMP), GLP-1R n2 [2]: 0.052 nM
Primary assay EC50 (cAMP), Mean pM GLP-1R [2]: 89.9 pM
Primary assay EC50 (cAMP), Gluc-R, first run [3]: 28 nM
Primary assay EC50 (cAMP), Gluc-R, second run [3]: 28 nM

B2: SEQ ID NO 183 (peptide)
peptide: H[Aib]EGS[αMeF]TSDV[αMeS]S[αMeF]LEGEAA[αMeK]E[αMeF]IA[αMeF]VVK([γGlu-γGlu-Stearoyl])GG-NH2
modifications: N-terminus assumed
SMILES: CCCCCCCCCCCCCCCCCC(=O)N[C@@H](CCC(=O)N[C@@H](CCC(=O)NCCCC[C@H](NC(=O)[C@@H](NC(=O)[C@@H](NC(=O)[C@](C)(Cc1ccccc1)NC(=O)[C@H](C)NC(=O)[C@@H](NC(=O)[C@](C)(Cc1ccccc1)NC(=O)[C@H](CCC(=O)O)NC(=O)[C@](C)(CCCCN)NC(=O)[C@H](C)NC(=O)[C@H](C)NC(=O)[C@H](CCC(=O)O)NC(=O)CNC(=O)[C@H](CCC(=O)O)NC(=O)[C@H](CC(C)C)NC(=O)[C@](C)(Cc1ccccc1)NC(=O)[C@H](CO)NC(=O)[C@](C)(CO)NC(=O)[C@@H](NC(=O)[C@H](CC(=O)O)NC(=O)[C@H](CO)NC(=O)[C@@H](NC(=O)[C@](C)(Cc1ccccc1)NC(=O)[C@H](CO)NC(=O)CNC(=O)[C@H](CCC(=O)O)NC(=O)C(C)(C)NC(=O)[C@@H](N)Cc1c[nH]cn1)[C@@H](C)O)C(C)C)[C@@H](C)CC)C(C)C)C(C)C)C(=O)NCC(=O)NCC(N)=O)C(=O)O)C(=O)O
Primary assay EC50 (cAMP), GIP-R, first run [1]: 27 nM
Primary assay EC50 (cAMP), GIP-R, second run [1]: 27 nM
Primary assay EC50 (cAMP), GLP-1R n1 [2]: 0.064 nM
Primary assay EC50 (cAMP), GLP-1R n2 [2]: 0.018 nM
Primary assay EC50 (cAMP), Mean pM GLP-1R [2]: 40.9 pM
Primary assay EC50 (cAMP), Gluc-R, first run [3]: 27 nM
Primary assay EC50 (cAMP), Gluc-R, second run [3]: 27 nM

B3: SEQ ID NO 184 (peptide)
peptide: H[Aib]EGS[αMeF]TSDV[αMeS]S[αMeF]LEGEAA[αMeK]E[αMeF]IA[αMeF]VVK([γGlu-γGlu-γGlu-Stearoyl])GG-NH2
modifications: N-terminus assumed
SMILES: CCCCCCCCCCCCCCCCCC(=O)N[C@@H](CCC(=O)N[C@@H](CCC(=O)N[C@@H](CCC(=O)NCCCC[C@H](NC(=O)[C@@H](NC(=O)[C@@H](NC(=O)[C@](C)(Cc1ccccc1)NC(=O)[C@H](C)NC(=O)[C@@H](NC(=O)[C@](C)(Cc1ccccc1)NC(=O)[C@H](CCC(=O)O)NC(=O)[C@](C)(CCCCN)NC(=O)[C@H](C)NC(=O)[C@H](C)NC(=O)[C@H](CCC(=O)O)NC(=O)CNC(=O)[C@H](CCC(=O)O)NC(=O)[C@H](CC(C)C)NC(=O)[C@](C)(Cc1ccccc1)NC(=O)[C@H](CO)NC(=O)[C@](C)(CO)NC(=O)[C@@H](NC(=O)[C@H](CC(=O)O)NC(=O)[C@H](CO)NC(=O)[C@@H](NC(=O)[C@](C)(Cc1ccccc1)NC(=O)[C@H](CO)NC(=O)CNC(=O)[C@H](CCC(=O)O)NC(=O)C(C)(C)NC(=O)[C@@H](N)Cc1c[nH]cn1)[C@@H](C)O)C(C)C)[C@@H](C)CC)C(C)C)C(C)C)C(=O)NCC(=O)NCC(N)=O)C(=O)O)C(=O)O)C(=O)O
Primary assay EC50 (cAMP), GIP-R, first run [1]: 26 nM
Primary assay EC50 (cAMP), GIP-R, second run [1]: 26 nM
Primary assay EC50 (cAMP), GLP-1R n1 [2]: 0.047 nM
Primary assay EC50 (cAMP), GLP-1R n2 [2]: 0.012 nM
Primary assay EC50 (cAMP), Mean pM GLP-1R [2]: 29.5 pM
Primary assay EC50 (cAMP), Gluc-R, first run [3]: 26 nM
Primary assay EC50 (cAMP), Gluc-R, second run [3]: 26 nM

B4: SEQ ID NO 185 (peptide)
peptide: H[Aib]EGS[αMeF]TSDV[αMeS]S[αMeF]LEGEAA[αMeK]E[αMeF]IA[αMeF]VVK([Ahx-Stearoyl])GG-NH2
modifications: N-terminus assumed
SMILES: CCCCCCCCCCCCCCCCCC(=O)NCCCCCC(=O)NCCCC[C@H](NC(=O)[C@@H](NC(=O)[C@@H](NC(=O)[C@](C)(Cc1ccccc1)NC(=O)[C@H](C)NC(=O)[C@@H](NC(=O)[C@](C)(Cc1ccccc1)NC(=O)[C@H](CCC(=O)O)NC(=O)[C@](C)(CCCCN)NC(=O)[C@H](C)NC(=O)[C@H](C)NC(=O)[C@H](CCC(=O)O)NC(=O)CNC(=O)[C@H](CCC(=O)O)NC(=O)[C@H](CC(C)C)NC(=O)[C@](C)(Cc1ccccc1)NC(=O)[C@H](CO)NC(=O)[C@](C)(CO)NC(=O)[C@@H](NC(=O)[C@H](CC(=O)O)NC(=O)[C@H](CO)NC(=O)[C@@H](NC(=O)[C@](C)(Cc1ccccc1)NC(=O)[C@H](CO)NC(=O)CNC(=O)[C@H](CCC(=O)O)NC(=O)C(C)(C)NC(=O)[C@@H](N)Cc1c[nH]cn1)[C@@H](C)O)C(C)C)[C@@H](C)CC)C(C)C)C(C)C)C(=O)NCC(=O)NCC(N)=O
Primary assay EC50 (cAMP), GIP-R, first run [1]: 28 nM
Primary assay EC50 (cAMP), GIP-R, second run [1]: 28 nM
Primary assay EC50 (cAMP), GLP-1R n1 [2]: 0.38 nM
Primary assay EC50 (cAMP), GLP-1R n2 [2]: 0.12 nM
Primary assay EC50 (cAMP), Mean pM GLP-1R [2]: 251 pM
Primary assay EC50 (cAMP), Gluc-R, first run [3]: 28 nM
Primary assay EC50 (cAMP), Gluc-R, second run [3]: 28 nM

B5: SEQ ID NO 186 (peptide)
peptide: H[Aib]EGS[αMeF]TSDV[αMeS]S[αMeF]LEGEAA[αMeK]E[αMeF]IA[αMeF]VVK([Ahx-Ahx-Stearoyl])GG-NH2
modifications: N-terminus assumed
SMILES: CCCCCCCCCCCCCCCCCC(=O)NCCCCCC(=O)NCCCCCC(=O)NCCCC[C@H](NC(=O)[C@@H](NC(=O)[C@@H](NC(=O)[C@](C)(Cc1ccccc1)NC(=O)[C@H](C)NC(=O)[C@@H](NC(=O)[C@](C)(Cc1ccccc1)NC(=O)[C@H](CCC(=O)O)NC(=O)[C@](C)(CCCCN)NC(=O)[C@H](C)NC(=O)[C@H](C)NC(=O)[C@H](CCC(=O)O)NC(=O)CNC(=O)[C@H](CCC(=O)O)NC(=O)[C@H](CC(C)C)NC(=O)[C@](C)(Cc1ccccc1)NC(=O)[C@H](CO)NC(=O)[C@](C)(CO)NC(=O)[C@@H](NC(=O)[C@H](CC(=O)O)NC(=O)[C@H](CO)NC(=O)[C@@H](NC(=O)[C@](C)(Cc1ccccc1)NC(=O)[C@H](CO)NC(=O)CNC(=O)[C@H](CCC(=O)O)NC(=O)C(C)(C)NC(=O)[C@@H](N)Cc1c[nH]cn1)[C@@H](C)O)C(C)C)[C@@H](C)CC)C(C)C)C(C)C)C(=O)NCC(=O)NCC(N)=O
Primary assay EC50 (cAMP), GIP-R, first run [1]: 27 nM
Primary assay EC50 (cAMP), GIP-R, second run [1]: 27 nM
Primary assay EC50 (cAMP), GLP-1R n1 [2]: 0.13 nM
Primary assay EC50 (cAMP), GLP-1R n2 [2]: 0.05 nM
Primary assay EC50 (cAMP), Mean pM GLP-1R [2]: 87.5 pM
Primary assay EC50 (cAMP), Gluc-R, first run [3]: 27 nM
Primary assay EC50 (cAMP), Gluc-R, second run [3]: 27 nM

B6: SEQ ID NO 187 (peptide)
peptide: H[Aib]EGS[αMeF]TSDV[αMeS]S[αMeF]LEGEAA[αMeK]E[αMeF]IA[αMeF]VVK([Ahx-Ahx-Ahx-Stearoyl])GG-NH2
modifications: N-terminus assumed
SMILES: CCCCCCCCCCCCCCCCCC(=O)NCCCCCC(=O)NCCCCCC(=O)NCCCCCC(=O)NCCCC[C@H](NC(=O)[C@@H](NC(=O)[C@@H](NC(=O)[C@](C)(Cc1ccccc1)NC(=O)[C@H](C)NC(=O)[C@@H](NC(=O)[C@](C)(Cc1ccccc1)NC(=O)[C@H](CCC(=O)O)NC(=O)[C@](C)(CCCCN)NC(=O)[C@H](C)NC(=O)[C@H](C)NC(=O)[C@H](CCC(=O)O)NC(=O)CNC(=O)[C@H](CCC(=O)O)NC(=O)[C@H](CC(C)C)NC(=O)[C@](C)(Cc1ccccc1)NC(=O)[C@H](CO)NC(=O)[C@](C)(CO)NC(=O)[C@@H](NC(=O)[C@H](CC(=O)O)NC(=O)[C@H](CO)NC(=O)[C@@H](NC(=O)[C@](C)(Cc1ccccc1)NC(=O)[C@H](CO)NC(=O)CNC(=O)[C@H](CCC(=O)O)NC(=O)C(C)(C)NC(=O)[C@@H](N)Cc1c[nH]cn1)[C@@H](C)O)C(C)C)[C@@H](C)CC)C(C)C)C(C)C)C(=O)NCC(=O)NCC(N)=O
Primary assay EC50 (cAMP), GIP-R, first run [1]: 26 nM
Primary assay EC50 (cAMP), GIP-R, second run [1]: 26 nM
Primary assay EC50 (cAMP), GLP-1R n1 [2]: 0.064 nM
Primary assay EC50 (cAMP), GLP-1R n2 [2]: 0.031 nM
Primary assay EC50 (cAMP), Mean pM GLP-1R [2]: 47.4 pM
Primary assay EC50 (cAMP), Gluc-R, first run [3]: 26 nM
Primary assay EC50 (cAMP), Gluc-R, second run [3]: 26 nM

B7: SEQ ID NO 188 (peptide)
peptide: H[Aib]EGS[αMeF]TSDV[αMeS]S[αMeF]LEGEAA[αMeK]E[αMeF]IA[αMeF]VVK([PEG2′-Stearoyl])GG-NH2
Primary assay EC50 (cAMP), GIP-R, first run [1]: 28 nM
Primary assay EC50 (cAMP), GIP-R, second run [1]: 28 nM
Primary assay EC50 (cAMP), GLP-1R n1 [2]: 0.17 nM
Primary assay EC50 (cAMP), GLP-1R n2 [2]: 0.077 nM
Primary assay EC50 (cAMP), Mean pM GLP-1R [2]: 125 pM
Primary assay EC50 (cAMP), Gluc-R, first run [3]: 28 nM
Primary assay EC50 (cAMP), Gluc-R, second run [3]: 28 nM
